Laboratory results: patent US9669057

Biological target: mouse CD40 (mouse) (UniProt P27512)
Assay: cell-based or functional assay

Chain of UniProt P27512 (P27512 20-289): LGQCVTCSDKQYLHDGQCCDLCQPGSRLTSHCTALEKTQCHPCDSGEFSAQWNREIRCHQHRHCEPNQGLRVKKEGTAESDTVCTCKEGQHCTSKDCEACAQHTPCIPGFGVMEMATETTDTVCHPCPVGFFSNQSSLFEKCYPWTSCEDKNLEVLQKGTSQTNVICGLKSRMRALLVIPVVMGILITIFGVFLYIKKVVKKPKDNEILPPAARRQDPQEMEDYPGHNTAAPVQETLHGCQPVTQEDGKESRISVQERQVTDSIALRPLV

fold increase in frequency of cytoplasmic IL-10+ adult blood B cells, 48 h culture against 5 h L+PIM culture: 6 to 9 fold
reduction of LPS-induced IL-10 secretion by spleen B cells, ELISA of culture supernatant: > 68%
Substance: anti-mouse CD40 mAb (HM40-3) (antibody)
